# T1: Activin A (UniProt P08476 311-426)
# T1 sequence (looked up): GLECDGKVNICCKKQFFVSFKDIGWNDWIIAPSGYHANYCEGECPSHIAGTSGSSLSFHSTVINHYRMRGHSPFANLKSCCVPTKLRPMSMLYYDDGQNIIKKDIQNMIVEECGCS
# T2: GDF11 (UniProt O95390 299-407)
# T2 sequence (looked up): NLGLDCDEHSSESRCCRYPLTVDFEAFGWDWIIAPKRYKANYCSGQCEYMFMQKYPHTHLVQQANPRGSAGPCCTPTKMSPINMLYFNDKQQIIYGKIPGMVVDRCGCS
# B1: ActRIIb-hFc (R64, 21-131) (Fc fusion)
# chain: RGEAETRECIYYNANWELERTNQSGLERCEGEQDKRLHCYASWRNSSGTIELVKKGCWLDDFNCYDRQECVATEENPQVYFCCCEGNFCNERFTHLPEAGGPEVTYEPPPTGGGTHTCPPCPAPELLGGPSVFLFPPKPKDTLMISRTPEVTCVVVDVSHEDPEVKFNWYVDGVEVHNAKTKPREEQYNSTYRVVSVLTVLHQDWLNGKEYKCKVSNKALPVPIEKTISKAKGQPREPQVYTLPPSREEMTKNQVSLTCLVKGFYPSDIAVEWESNGQPENNYKTTPPVLDSDGSFFLYSKLTVDKSRWQQGNVFSCSVMHEALHNHYTQKSLSLSPGK
# B2: ActRIIb-hFc (R64, 22-131) (Fc fusion)
# chain: GEAETRECIYYNANWELERTNQSGLERCEGEQDKRLHCYASWRNSSGTIELVKKGCWLDDFNCYDRQECVATEENPQVYFCCCEGNFCNERFTHLPEAGGPEVTYEPPPTGGGTHTCPPCPAPELLGGPSVFLFPPKPKDTLMISRTPEVTCVVVDVSHEDPEVKFNWYVDGVEVHNAKTKPREEQYNSTYRVVSVLTVLHQDWLNGKEYKCKVSNKALPVPIEKTISKAKGQPREPQVYTLPPSREEMTKNQVSLTCLVKGFYPSDIAVEWESNGQPENNYKTTPPVLDSDGSFFLYSKLTVDKSRWQQGNVFSCSVMHEALHNHYTQKSLSLSPGK
# B3: ActRIIb-hFc (R64, 24-131) (Fc fusion)
# chain: AETRECIYYNANWELERTNQSGLERCEGEQDKRLHCYASWRNSSGTIELVKKGCWLDDFNCYDRQECVATEENPQVYFCCCEGNFCNERFTHLPEAGGPEVTYEPPPTGGGTHTCPPCPAPELLGGPSVFLFPPKPKDTLMISRTPEVTCVVVDVSHEDPEVKFNWYVDGVEVHNAKTKPREEQYNSTYRVVSVLTVLHQDWLNGKEYKCKVSNKALPVPIEKTISKAKGQPREPQVYTLPPSREEMTKNQVSLTCLVKGFYPSDIAVEWESNGQPENNYKTTPPVLDSDGSFFLYSKLTVDKSRWQQGNVFSCSVMHEALHNHYTQKSLSLSPGK
# B4: ActRIIb-hFc (R64, 20-131) (Fc fusion)
# chain: GRGEAETRECIYYNANWELERTNQSGLERCEGEQDKRLHCYASWRNSSGTIELVKKGCWLDDFNCYDRQECVATEENPQVYFCCCEGNFCNERFTHLPEAGGPEVTYEPPPTGGGTHTCPPCPAPELLGGPSVFLFPPKPKDTLMISRTPEVTCVVVDVSHEDPEVKFNWYVDGVEVHNAKTKPREEQYNSTYRVVSVLTVLHQDWLNGKEYKCKVSNKALPVPIEKTISKAKGQPREPQVYTLPPSREEMTKNQVSLTCLVKGFYPSDIAVEWESNGQPENNYKTTPPVLDSDGSFFLYSKLTVDKSRWQQGNVFSCSVMHEALHNHYTQKSLSLSPGK
# B5: ActRIIb-hFc (R64, 23-131) (Fc fusion)
# chain: EAETRECIYYNANWELERTNQSGLERCEGEQDKRLHCYASWRNSSGTIELVKKGCWLDDFNCYDRQECVATEENPQVYFCCCEGNFCNERFTHLPEAGGPEVTYEPPPTGGGTHTCPPCPAPELLGGPSVFLFPPKPKDTLMISRTPEVTCVVVDVSHEDPEVKFNWYVDGVEVHNAKTKPREEQYNSTYRVVSVLTVLHQDWLNGKEYKCKVSNKALPVPIEKTISKAKGQPREPQVYTLPPSREEMTKNQVSLTCLVKGFYPSDIAVEWESNGQPENNYKTTPPVLDSDGSFFLYSKLTVDKSRWQQGNVFSCSVMHEALHNHYTQKSLSLSPGK
# B6: ActRIIb-hFc (R64, 20-132) (Fc fusion)
# chain: GRGEAETRECIYYNANWELERTNQSGLERCEGEQDKRLHCYASWRNSSGTIELVKKGCWLDDFNCYDRQECVATEENPQVYFCCCEGNFCNERFTHLPEAGGPEVTYEPPPTAGGGTHTCPPCPAPELLGGPSVFLFPPKPKDTLMISRTPEVTCVVVDVSHEDPEVKFNWYVDGVEVHNAKTKPREEQYNSTYRVVSVLTVLHQDWLNGKEYKCKVSNKALPVPIEKTISKAKGQPREPQVYTLPPSREEMTKNQVSLTCLVKGFYPSDIAVEWESNGQPENNYKTTPPVLDSDGSFFLYSKLTVDKSRWQQGNVFSCSVMHEALHNHYTQKSLSLSPGK
# B7: ActRIIB(20-134)-hFc (Fc fusion)
# chain: GRGEAETRECIYYNANWELERTNQSGLERCEGEQDKRLHCYASWRNSSGTIELVKKGCWLDDFNCYDRQECVATEENPQVYFCCCEGNFCNERFTHLPEAGGPEVTYEPPPTAPTGGGTHTCPPCPAPELLGGPSVFLFPPKPKDTLMISRTPEVTCVVVDVSHEDPEVKFNWYVDGVEVHNAKTKPREEQYNSTYRVVSVLTVLHQDWLNGKEYKCKVSNKALPVPIEKTISKAKGQPREPQVYTLPPSREEMTKNQVSLTCLVKGFYPSDIAVEWESNGQPENNYKTTPPVLDSDGSFFLYSKLTVDKSRWQQGNVFSCSVMHEALHNHYTQKSLSLSPGK
# B8: ActRIIb-hFc (R64, 20-128) (Fc fusion)
# chain: GRGEAETRECIYYNANWELERTNQSGLERCEGEQDKRLHCYASWRNSSGTIELVKKGCWLDDFNCYDRQECVATEENPQVYFCCCEGNFCNERFTHLPEAGGPEVTYEPGGGTHTCPPCPAPELLGGPSVFLFPPKPKDTLMISRTPEVTCVVVDVSHEDPEVKFNWYVDGVEVHNAKTKPREEQYNSTYRVVSVLTVLHQDWLNGKEYKCKVSNKALPVPIEKTISKAKGQPREPQVYTLPPSREEMTKNQVSLTCLVKGFYPSDIAVEWESNGQPENNYKTTPPVLDSDGSFFLYSKLTVDKSRWQQGNVFSCSVMHEALHNHYTQKSLSLSPGK
# Molecular target: T1, Activin A
# Assay: cell-based or functional assay
row,"IC50 (ng/mL), reporter gene assay, conditioned media [ng/mL]",Binder
1,325,B1
2,100,B2
3,105,B3
4,201,B4
5,43,B5

# Molecular target: T2, GDF11
# Assay: cell-based or functional assay
row,"IC50 (ng/mL), reporter gene assay, conditioned media [ng/mL]",Binder
1,121,B1
2,71,B2
3,69,B3
4,183,B4
5,60,B5

# Molecular target: T1, Activin A
# Assay: cell-based or functional assay
# Remark: another data set of the same source
row,"IC50 (ng/mL), reporter gene assay, conditioned media [ng/mL]",Binder
1,32,B6
2,2,B7
3,158,B8
4,44,B4

# Molecular target: T2, GDF11
# Assay: cell-based or functional assay
# Remark: another data set of the same source
row,"IC50 (ng/mL), reporter gene assay, conditioned media [ng/mL]",Binder
1,87,B6
2,45,B7
3,130,B8
4,120,B4

# Source: patent US20160264681A1 (ACCELERON PHARMA, published 2016)
